Assay [1] has as its target T1, membrane-bound human NEP expressed by LNCaP epithelial cells (Homo sapiens, UniProt P08473).
T1 construct: endogenous in cells; host or cells: LNCaP epithelial cells (membranes)
Put plainly: Substance P cleavage by membrane-bound hNEP (human cell membranes). It is filed as biochemical. The conditions noted are these: fold increase, same test.

The target of assay [2] is T2, human NEP (Homo sapiens, UniProt P08473).
T2 construct: devoid of their respective N-terminal cytosol and transmembrane segment; purchased R&D Systems
Briefly: Screening of Opiorphin peptide-derivatives on hNEP (endopeptidase and carboxydipeptidase activities). The class given is biochemical. The conditions noted are these: for inhibitory preference / dual inhibition, human NEP versus human AP-N (in words): hNEP endopeptidase and carboxydipeptidase activities versus hAP-N; for inhibitory potency towards hNEP as compared to Opiorphin-QRFSR native peptide (in words): relative to native peptide; for inhibitory potency towards human NEP (in words): screening, 50 μM final concentration. On the procedure: (§1) According to conditions of initial velocity measurement: the time, pH and temperature of incubation as well as enzyme and substrate concentrations were defined for each assay. Hydrolysis of substrates was measured by real-time monitoring their metabolism rate by the two peptidases in the presence and absence of tested inhibitory compound (concentrations ranging from 1 to 50 μM). These were added to the preincubation medium. The background rate of substrate autolysis representing the fluorescent signal obtained in the absence of enzyme was subtracted to calculate the initial velocities in RFU (Relative Fluorescent Unit)/min.
([…] successive measures) by using a fluorimeter microplate reader (monochromator Infinite 200-Tecan) at 320 nm and 420 nm excitation and emission wavelengths, respectively.
Using black half-area 96 well microplate, the standard reaction consisted of enzyme (2.5 ng) in 100 mM Tris-HCl pH 6.5 containing 50 mM NaCl (100 μl final volume). The substrate (4 μM final concentration) was added after preincubation for 10 min and the kinetics of appearance of the fluorescent signal (RFU) was directly analyzed for 40 min at 28° C. (2.3 min-interval successive measures) by using the fluorimeter reader at 320 nm excitation and 420 nm emission wavelengths.
In addition, the intramolecularly quenched fluorogenic peptide, Mca-BK2 (10 μM), was submitted to hydrolysis by 5 ng rhNEP under the same experimental conditions as those described behind.
(§2) Compounds were tested in triplicate at 50 μM final concentration.

Assay [3] addresses T3, recombinant human AP-N (Homo sapiens, UniProt P15144).
T3 construct: devoid of their respective N-terminal cytosol and transmembrane segment; purchased R&D Systems
Put plainly: AP-N-ectopeptidase activity, Ala-Mca substrate. The class given is biochemical. To be noted: for inhibitory potency towards hAP-N as compared to Opiorphin-QRFSR native peptide (in words): relative to native peptide. On the procedure: Formal kinetic analysis was performed for each assay using real-time fluorescence monitoring of specific substrate hydrolysis.
Recombinant human NEP and recombinant human AP-N (devoid of their respective N-terminal cytosol and transmembrane segment) that were purchased from R&D Systems, were used as pure source of peptidase.
FRET is the distance-dependant transfer of energy from a donor fluorophore (Abz=ortho-aminobenzoyl or Mca=7-methoxycoumarin-4-yl-acetyl) to an acceptor fluorophore (DnpOH=2,4-dinitrophenyl or EDDnp=2,4-dinitrophenyl ethylenediamine). • L-alanine-Mca, Ala-Mca, a fluorogenic substrate for measuring aminopeptidase activity was purchased from Sigma.
as §1
Measurement of AP-N-Ectopeptidase Activity Using Ala-Mca Substrate.
Using black half-area 96 well microplate the standard reaction consisted of enzyme (4 ng) in 100 mM Tris-HCl pH 7.0 (100 μl final volume).
as §2

Assay [4] addresses T4, Recombinant human AP-N (aminopeptidase N, EC 3.4.11.2), devoid of its N-terminal cytosol and transmembrane … (human, UniProt P15144 33-967). Put plainly: cell-based or functional assay.
The target of assay [5] is T4, Recombinant human AP-N (aminopeptidase …). Put plainly: cell-based or functional assay. This is another data set of the same source.
In assay [6] the target is Recombinant human NEP (neutral endopeptidase, EC 3.4.24.11), devoid of its N-terminal cytosol and … (human, UniProt P08473 52-750). Put plainly: cell-based or functional assay.

Non-standard residues stand in square brackets, D forms with d. No end group written: not given here. 12Ado = NCCCCCCCCCCCC(=O)O; Ahx = NCCCCCC(=O)O

T3 sequence (P15144 33-967 limits assumed): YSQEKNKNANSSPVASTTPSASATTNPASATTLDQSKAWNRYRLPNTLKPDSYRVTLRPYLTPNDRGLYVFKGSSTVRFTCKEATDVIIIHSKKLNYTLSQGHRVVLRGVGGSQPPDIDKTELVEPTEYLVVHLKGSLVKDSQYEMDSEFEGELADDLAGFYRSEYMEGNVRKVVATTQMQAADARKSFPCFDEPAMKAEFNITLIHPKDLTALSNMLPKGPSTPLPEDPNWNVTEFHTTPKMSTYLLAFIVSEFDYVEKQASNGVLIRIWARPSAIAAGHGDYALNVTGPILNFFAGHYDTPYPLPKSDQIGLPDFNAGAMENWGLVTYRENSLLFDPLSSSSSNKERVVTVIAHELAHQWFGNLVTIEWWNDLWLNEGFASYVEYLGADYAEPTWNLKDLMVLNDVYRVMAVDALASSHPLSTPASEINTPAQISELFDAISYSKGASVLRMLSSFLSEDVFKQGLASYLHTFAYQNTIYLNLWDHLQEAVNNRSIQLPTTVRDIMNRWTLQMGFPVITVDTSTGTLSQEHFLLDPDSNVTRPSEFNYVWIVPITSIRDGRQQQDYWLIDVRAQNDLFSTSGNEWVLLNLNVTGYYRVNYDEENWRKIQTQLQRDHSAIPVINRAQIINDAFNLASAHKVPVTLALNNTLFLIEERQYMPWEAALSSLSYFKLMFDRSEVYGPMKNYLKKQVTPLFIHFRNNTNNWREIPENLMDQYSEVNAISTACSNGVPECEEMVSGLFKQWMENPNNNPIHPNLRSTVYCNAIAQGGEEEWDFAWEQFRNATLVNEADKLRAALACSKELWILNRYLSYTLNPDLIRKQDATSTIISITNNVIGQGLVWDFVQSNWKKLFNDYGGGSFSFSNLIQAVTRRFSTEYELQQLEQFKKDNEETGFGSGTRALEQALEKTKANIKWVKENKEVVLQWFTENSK
T4 sequence (P15144 33-967): as the sequence (P15144 33-967 limits assumed) above
T2 sequence (P08473 52-750 limits assumed): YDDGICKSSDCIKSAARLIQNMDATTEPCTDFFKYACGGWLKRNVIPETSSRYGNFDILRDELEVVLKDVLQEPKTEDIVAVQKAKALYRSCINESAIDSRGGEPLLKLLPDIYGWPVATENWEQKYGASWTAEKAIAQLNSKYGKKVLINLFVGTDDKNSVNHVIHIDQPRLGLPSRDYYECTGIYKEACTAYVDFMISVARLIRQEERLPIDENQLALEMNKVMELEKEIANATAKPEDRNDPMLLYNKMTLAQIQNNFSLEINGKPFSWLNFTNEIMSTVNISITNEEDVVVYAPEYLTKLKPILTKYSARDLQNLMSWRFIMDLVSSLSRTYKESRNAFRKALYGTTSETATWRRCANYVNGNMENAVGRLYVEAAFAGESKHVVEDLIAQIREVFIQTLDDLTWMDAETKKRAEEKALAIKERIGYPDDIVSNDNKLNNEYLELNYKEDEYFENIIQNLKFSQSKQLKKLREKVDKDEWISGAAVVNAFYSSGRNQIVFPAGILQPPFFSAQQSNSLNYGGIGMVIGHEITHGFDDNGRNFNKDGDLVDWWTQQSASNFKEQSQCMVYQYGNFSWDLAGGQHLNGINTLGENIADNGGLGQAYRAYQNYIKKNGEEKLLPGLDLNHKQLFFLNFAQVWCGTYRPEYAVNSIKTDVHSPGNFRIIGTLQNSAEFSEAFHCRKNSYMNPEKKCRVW
Sequence of Recombinant human NEP (neutral endopeptidase, EC 3.4.24.11), devoid of its N-terminal cytosol and … (P08473 52-750): as the sequence (P08473 52-750 limits assumed) above
T1 sequence (P08473 whole entry): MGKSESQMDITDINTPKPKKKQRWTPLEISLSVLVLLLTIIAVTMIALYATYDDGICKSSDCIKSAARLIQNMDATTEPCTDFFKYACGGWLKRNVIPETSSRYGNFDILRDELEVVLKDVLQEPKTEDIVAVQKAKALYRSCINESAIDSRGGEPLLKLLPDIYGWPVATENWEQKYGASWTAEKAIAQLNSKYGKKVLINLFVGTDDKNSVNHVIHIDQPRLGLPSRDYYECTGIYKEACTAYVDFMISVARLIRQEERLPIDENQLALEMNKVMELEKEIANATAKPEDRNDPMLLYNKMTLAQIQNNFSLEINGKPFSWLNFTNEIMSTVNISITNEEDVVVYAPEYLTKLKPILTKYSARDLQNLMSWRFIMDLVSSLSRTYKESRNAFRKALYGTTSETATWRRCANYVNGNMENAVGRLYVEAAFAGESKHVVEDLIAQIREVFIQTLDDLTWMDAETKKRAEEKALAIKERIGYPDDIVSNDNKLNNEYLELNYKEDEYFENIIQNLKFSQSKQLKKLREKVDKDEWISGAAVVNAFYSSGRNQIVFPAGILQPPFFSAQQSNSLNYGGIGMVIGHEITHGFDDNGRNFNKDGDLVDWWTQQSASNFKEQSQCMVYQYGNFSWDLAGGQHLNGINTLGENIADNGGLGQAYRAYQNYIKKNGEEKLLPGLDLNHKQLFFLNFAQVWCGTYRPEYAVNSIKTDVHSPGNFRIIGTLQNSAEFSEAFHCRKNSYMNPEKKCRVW

For `CCCCCCCC(=O)OC[C@H](NC(=O)[C@H](Cc1ccccc1)NC(=O)[C@H](CCCNC(=N)N)NC(=O)[C@H](CCC(N)=O)NC(=O)CCCCCCNC(=O)[C@@H](N)CS)C(=O)N[C@@H](CCCNC(=N)N)C(=O)O` [C-[PE6]-QRFS[O-C8]R, C—(—HN—(CH2)6—CO—)-QRF—S(O-octanoyl)-R], the “increase inhibitory potency compared to Opiorphin native peptide, Substance P test” value in assay [1] is reported as “at least 5 fold”.
For the molecule `N=C(N)NCCC[C@H](NC(=O)[C@H](CO)NC(=O)[C@H](Cc1ccccc1)NC(=O)[C@H](CCCNC(=N)N)NC(=O)[C@H](CCC(N)=O)NC(=O)[C@@H](N)CS)C(=O)O` [CQRFSR], the “reinforced inhibitory potency towards hNEP compared to QRFSR native peptide” value in assay [2] (fold increase) was determined as 5 fold. In addition, the “inhibitory preference / dual inhibition, human NEP versus human AP-N (in words)” value in assay [2] was “potent dual inhibitors”.
Consider `N=C(N)NCCC[C@H](NC(=O)[C@H](CO)NC(=O)[C@H](Cc1ccccc1)NC(=O)[C@H](CCCNC(=N)N)NC(=O)[C@H](CCC(N)=O)NC(=O)CCCCCCCCCCCCNC(=O)[C@@H](N)Cc1ccc(O)cc1)C(=O)O` [Y-[PE12]QRFSR, Y—(—HN—(CH2)12—CO—)-QRFSR], for which the “inhibitory preference / dual inhibition, human NEP versus human AP-N (in words)” value in assay [2] (listed as NH2-Y(PE12)QRFSR—COOH) was “potent dual inhibitors”; in assay [2] (listed as NH2-Y—(C12-polyethylene)QRFSR—COOH) it was “inhibitory preference for human NEP endopeptidase activity”; in assay [2] (listed as Y—(C12-polyethylene)QRFSR) it was “inhibitory preference for human NEP endopeptidase activity”.
Take `N=C(N)NCCC[C@H](NC(=O)[C@H](CO)NC(=O)[C@H](Cc1ccccc1)NC(=O)[C@H](CCCNC(=N)N)NC(=O)[C@H](CCC(N)=O)NC(=O)[C@@H](N)CSSC[C@H](N)C(=O)N[C@@H](CCC(N)=O)C(=O)N[C@@H](CCCNC(=N)N)C(=O)N[C@@H](Cc1ccccc1)C(=O)N[C@@H](CO)C(=O)N[C@@H](CCCNC(=N)N)C(=O)O)C(=O)O` [[CQRFSR]2]: the “increase inhibitory potency towards hNEP-Endo and CarboxyDi-peptidase activities compared to CQRFSR monomer peptide” value in assay [2] (fold increase) is “at least 2 fold”.
In the case of QHNPR, the “inhibitory potency towards hAP-N as compared to Opiorphin-QRFSR native peptide (in words)” value in assay [3] is reported as “equivalent inhibitory potency”. For the same molecule, in assay [2], the “inhibitory preference / dual inhibition, human NEP versus human AP-N (in words)” value is listed as “inhibitory preference for human AP-N”; the “inhibitory potency towards hNEP as compared to Opiorphin-QRFSR native peptide (in words)” value was “weak inhibitory potency”; the “inhibitory potency towards human NEP (in words)” value is “weak inhibitory potency”.
QKFSR: the “inhibitory potency towards hNEP as compared to Opiorphin-QRFSR native peptide (in words)” value in assay [2] is given as “light reduction in inhibitory potency”.
QRFPR: in assay [3], the “inhibitory potency towards hAP-N as compared to Opiorphin-QRFSR native peptide (in words)” value is on record as “equivalent inhibitory potency”. Further, in assay [2], the “inhibitory preference / dual inhibition, human NEP versus human AP-N (in words)” value is given as “inhibitory preference for human AP-N”; the “inhibitory potency towards hNEP as compared to Opiorphin-QRFSR native peptide (in words)” value is recorded as “weak inhibitory potency”; the “inhibitory potency towards human NEP (in words)” value is reported as “weak inhibitory potency”.
Consider QRFSK (H-QRFSK-OH), for which the “inhibitory potency towards hNEP as compared to Opiorphin-QRFSR native peptide (in words)” value in assay [2] is on record as “equivalent inhibitory potency”.
As for QRGPR (H-QRGPR-OH), the “inhibitory potency towards hAP-N as compared to Opiorphin-QRFSR native peptide (in words)” value in assay [3] was “equivalent inhibitory potency”. Besides, in assay [2], the “inhibitory preference / dual inhibition, human NEP versus human AP-N (in words)” value was “inhibitory preference for human AP-N”; the “inhibitory potency towards hNEP as compared to Opiorphin-QRFSR native peptide (in words)” value was “weak inhibitory potency”; the “inhibitory potency towards human NEP (in words)” value is listed as “weak inhibitory potency”.
“dR-dS-dF-dR-dQ ([dR][dS][dF][dR][dQ]) [NH2-dRdSdFdRdQ-COOH]”: the “inhibitory potency towards human AP-N (in words)” value in assay [3] (screening, 50 μM final concentration) is “did not display significant inhibitory activity”. In assay [2], the “inhibitory preference / dual inhibition, human NEP versus human AP-N (in words)” value is “preference for AP-N activity” and the “inhibitory potency towards human NEP (in words)” value is recorded as “did not display significant inhibitory activity”.
Take H-C[12Ado]QRFSR-OH [NH2-C-(C12-polyethylene)QRFSR-COOH]: the “IC50, µM towards hAP-N (Ala-AMC cleavage)” value in assay [4] amounted to 0.8 µM.
With H-QRFSK-OH [NH2-QRFSK-COOH], the “fold decrease in inhibitory potency compared to Opiorphin-QRFSR native peptide” value in assay [5] is 10 fold.
With H-C[Ahx]QRFSR-OH [NH2-C-(C6-polyethylene)QRFSR-COOH], the “IC50, µM towards hNEP-Endopeptidase (Abz-dR-G-L-EDDnp cleavage)” value in assay [6] worked out at 40 µM. In addition, the “IC50, µM towards hAP-N (Ala-AMC cleavage)” value in assay [4] came out at 0.8 µM.
Take H-QKFSR-OH [NH2-QKFSR-COOH]: the “fold decrease in inhibitory potency compared to Opiorphin-QRFSR native peptide” value in assay [5] is more than 10 fold.

The values are drawn from US8642729B2, “Opiorphin peptide derivatives as potent inhibitors of enkephalin-degrading ectopeptidases” (Institut Pasteur, priority 2008, dated 2014).
